In article PMC8262878, “GP96 Drives Exacerbation of Secondary Bacterial Pneumonia following Influenza A Virus Infection” (mBio, 2021) one finds Kd, koff and kon data, which are given here for 2 molecules.

The target of this assay is T1, recombinant glycoprotein 96 (GP96) (human, UniProt P14625 22-803).
T1 construct: The purification of GP96 and the fate of the GST tag are not described; also called GRP94; Grp94; source: E. coli BL21(DE3), pGEX-6P-1 vector; recombinant protein
As to the kind of experiment: SPR; BIAcore X-100; GP96 amine-coupled to a CM5 chip; AliA or AliB as analyte at 31.3-500 nM; HBS-P buffer (0.01 M HEPES pH 7.4, 0.15 M NaCl, 0.005% surfactant P20), 37°C, 30 ul/min; 1:1 Langmuir binding model. Conditions: both partners purified. Background: SPR reads the build-up and loss of mass on a sensor chip optically.

T1 sequence (P14625 22-803): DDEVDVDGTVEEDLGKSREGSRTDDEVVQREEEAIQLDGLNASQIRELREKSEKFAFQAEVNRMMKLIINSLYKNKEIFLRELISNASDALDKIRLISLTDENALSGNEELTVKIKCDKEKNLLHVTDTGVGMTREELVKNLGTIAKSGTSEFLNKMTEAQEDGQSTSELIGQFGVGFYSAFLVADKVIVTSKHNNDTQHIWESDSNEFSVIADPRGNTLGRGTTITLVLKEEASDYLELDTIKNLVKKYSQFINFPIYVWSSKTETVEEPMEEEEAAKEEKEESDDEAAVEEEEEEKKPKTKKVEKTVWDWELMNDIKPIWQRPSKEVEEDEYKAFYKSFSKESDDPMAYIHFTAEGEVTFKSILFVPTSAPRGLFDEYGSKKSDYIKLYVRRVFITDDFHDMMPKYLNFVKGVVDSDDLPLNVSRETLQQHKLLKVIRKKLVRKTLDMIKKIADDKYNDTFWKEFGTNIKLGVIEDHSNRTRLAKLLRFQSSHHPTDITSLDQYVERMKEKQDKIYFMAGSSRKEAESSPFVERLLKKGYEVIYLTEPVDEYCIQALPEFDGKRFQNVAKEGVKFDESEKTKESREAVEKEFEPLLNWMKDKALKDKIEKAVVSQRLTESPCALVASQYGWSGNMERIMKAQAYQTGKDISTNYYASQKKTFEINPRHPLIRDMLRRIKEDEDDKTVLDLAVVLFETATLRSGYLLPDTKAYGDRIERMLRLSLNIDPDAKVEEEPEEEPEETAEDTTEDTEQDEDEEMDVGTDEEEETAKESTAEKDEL

B1: recombinant AliA (natural protein)
chain: CSGSGSSTKGEKTFSYIYETDPDNLNYLTTAKAATANITSNVVDGLLENDRYGNFVPSMAEDWSVSKDGLTYTYTIRKDAKWYTSEGEEYAAVKAQDFVTGLKYAADKKSDALYLVQESIKGLDAYVKGEIKDFSQVGIKALDEQTVQYTLNKPESFWNSKTTMGVLAPVNEEFLNSKGDDFAKATDPSSLLYNGPYLLKSIVTKSSVEFAKNPNYWDKDNVHVDKVKLSFWDGQDTSKPAENFKDGSLTAARLYPTSASFAELEKSMKDNIVYTQQDSITYLVGTNIDRQSYKYTSKTSDEQKASTKKALLNKDFRQAIAFGFDRTAYASQLNGQTGASKILRNLFVPPTFVQADGKNFGDMVKEKLVTYGDEWKDVNLADSQDGLYNPEKAKAEFAKAKSALQAEGVQFPIHLDMPVDQTATTKVQRVQSMKQSLEATLGADNVIIDIQQLQKDEVNNITYFAENAAGEDWDLSDNVGWGPDFADPSTYLDIIKPSVGESTKTYLGFDSGEDNVAAKKVGLYDYEKLVTEAGDETTDVAKRYDKYAAAQAWLTDSALIIPTTSRTGRPILSKMVPFTIPFALSGNKGTSEPVLYKYLELQDKAVTVDEYQKAQEKWMKEKEESNKKAQEDLAKHVK
notes: also called Ali protein; source: E. coli XL10-Gold, pQE30 vector, purified (QIAexpress protein purification system)
What is called Kd is the equilibrium constant for the complex coming apart. What is called koff is a measure of how fast the partners let go of each other. Broadly, the kon is a measure of how fast the partners come together. Consider B1, for which the Kd worked out at 34 nM, the koff was found to be 0.000785 s⁻¹ and the kon worked out at 23100 M⁻¹ s⁻¹.

B2: recombinant AliB (natural protein)
chain: CGNSSTASKTYNYVYSSDPSSLNYLAENRAATSDIVANLVDGLLENDQYGNIIPSLAEDWTVSQDGLTYTYKLRKDAKWFTSEGEEYAPVTAQDFVTGLQYAADKKSEALYLVQDSVAGLDDYITGKTSDFSTVGVKALDDQTVQYTLVKPELYWNSKTLATILFPVNADFLKSKGDDFGKADPSSILYNGPFLMKALVSKSAIEYKKNPNYWDAKNVFVDDVKLTYYDGSDQESLERNFTAGAYTTARLFPNSSSYEGIKEKYKNNIIYSMQNSTSYFFNFNLDRKSYNYTSKTSDIEKKSTQEAVLNKNFRQAINFAFDRTSYGAQSEGKEGATKILRNLVVPPNFVSIKGKDFGEVVASKMVNYGKEWQGINFADGQDPYYNPEKAKAKFAEAKKELEAKGVQFPIHLDKTVEVTDKVGIQGVSSIKQSIESVLGSDNVVIDIQQLTSDEFDSSGYFAQTAAQKDYDLYHGGWGPDYQDPSTYLDIFNTNSGGFLQNLGLEPGEANDKAKAVGLDVYTQMLEEANKEQDPAKRYEKYADIQAWLIDSSLVLPSVSRGGTPSLRRTVPFAAAYGLTGTKGVESYKYLKVQDKIVTTDEYAKAREKWLKEKEESNKKAQEELAKHVK
notes: as for B1
For the molecule B2, the Kd is 48.5 nM, the koff came to 10.1 s⁻¹ and the kon came to 2.09e+08 M⁻¹ s⁻¹.
